Measured values: patent publication US20160346375A1 (MCMASTER UNIVERSITY, published 2016)

Biological target: T1, Cpn0803 (Chlamydia pneumoniae, UniProt Q9Z7A3 1-184)
T1 construct: Prey in an E. coli lysate
T1 sequence: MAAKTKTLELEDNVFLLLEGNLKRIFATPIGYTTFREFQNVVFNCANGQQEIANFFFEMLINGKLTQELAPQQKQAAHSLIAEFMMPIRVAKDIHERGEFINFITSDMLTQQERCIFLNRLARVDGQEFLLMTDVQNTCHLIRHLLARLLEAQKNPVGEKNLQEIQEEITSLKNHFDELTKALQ
Assay: GST pull-down from E. coli lysate, high salt wash

B1: GST-CopB1-255 (other)
chain: MSISSSSGPDNQKNIMSQVLTSTPQGVPQQDKLSGNETKQIQQTRQGKNTEMESDATIAGASGKDKTSSTTKTETAPQQGVAAGKESSESQKAGADTGVSGAAATTASNTATKIAMQTSIEEASKSMESTLESLQSLSAAQMKEVEAVVVAALSGKSSGSAKLETPELPKPGVTPRSEVIEIGLALAKAIQTLGEATKSALSNYASTQAQADQTNKLGLEKQAIKIDKEREEYQEMKAAEQKSKDLEGTMDTVNT
notes: Bait on glutathione-agarose beads; also called recombinant GST-CopB1-255; GST-CopB fragment; not shown: glutathione-S-transferase (GST) fusion tag
Q: Does B1 bind?
A: Result: no binding
